Results reported in US20090062187A1, “Use of Hmgb1 for Wound Healing” (priority 2004, published 2009).
“Also recorded” adds a separate entry of the source.

Key:
[1] = system: diabetic CD1 mice; assay: Wound closure after full-thickness excised wound in streptozotocin-diabetic CD1 mice; format: in vivo
Protocol: CD1 male mice were obtained from Charles River (Calco, LC, Italy). Mice were rendered diabetic by intraperitoneal injection of streptozotocin (Sigma-Aldrich, St Louis, Mo., USA) at 1.2 mg/30 g weight/day for 5 consecutive days. After 7 days, glycemia was measured and animals with glycemia of 200 to 400 mg/dl were selected for further studies. Mice were anesthetized with intraperitoneal injection of 2.5% Avertin (100% Avertin: 10 g of 2,2,2-tribromoethyl alcohol and 10 ml of tert-amyl alcohol, Sigma). Their dorsum was clipped free of hair and a full thickness wound of 3.5 mm diameter was created using a biopsy punch.
HMGB1 treatment was performed directly in the wound area by injecting 200 ng, 400 ng or 800 ng of purified protein (13) in 20 μl of saline solution at time immediately after wound. Control groups received 20 μl of saline solution in the wound. Glycyrrhyzin, GL (12) was administered topically in the wound area every two days from day 0 to day 14 after wound creation. The concentration used for each administration was 250 μg/mouse in 30 μl of PBS. Control mice received vehicle (PBS).
Animals were photographed at day 0, 3, 5, 6, 7, 10, and 14 after wound. Pictures were digitally processed and areas of wounds were calculated using the KS300 system (Zeiss, Jena GmbH, Germany). For each sample the percentage of wound closure was calculated as the ratio: […]
Where time 0 is the time immediately after the wound. The groups included 6 to 10 animals. Results are presented as mean±standard error. Statistical significance between two measurements was evaluated by unpaired Student's t test.

[2] = system: normal CD1 mice; assay: Wound closure after full-thickness excised wound in normal CD1 mice; format: in vivo; details: for wound area reduced by % of the initial size / wound closure / healing rate vs vehicle: normal mice; for wound area reduced by % of the initial size: GL 250 μg/mouse topically every two days; for wound closure / healing rate vs vehicle: GL 250 μg/mouse topically in wound area
[3] = system: normal human fibroblasts; assay: Chemotaxis assay (modified Boyden chamber), normal human fibroblasts; format: cell-based; details: HMGB1 200 ng/ml
Protocol: (§1) FIG. 9: Effect of HMGB1 on human fibroblasts and keratinocytes migration. Normal (A) and diabetic (B) fibroblasts were obtained from human biopsies. 0.4×10^6 cells/ml were placed in upper compartment of the modified Boyden chambers. HMGB1 (200 ng/ml) or PDGF (15 ng/ml) was added to the lower compartment and incubated for 6 hrs at 37° C. (C) Hacat cells were obtained from ATCC and migration experiments performed as described in (A-B). After staining with Giemsa solution, migrated cells were quantified by counting nuclei in five random microscope fields (40×). The data are expressed as migration index (fold increase in number of migrated cells relative to number of migrated cells in the absence of HMGB1 or PDGF) and are mean±SD of at least 4 independent experiments performed in triplicate. Statistical significance was evaluated by unpaired Student's t test. […]
(§2) The lower compartment of each chamber was filled with 28 μl DMEM with 0.1% BSA. […] Cells on five random fields on the lower face of the filter were counted at 40× magnification and migration index was calculated by dividing the number of migrated cells in the presence of chemoattractants by the cells migrated in response to DMEM with 0.1% BSA.

[4] = system: diabetic human fibroblasts; assay: Chemotaxis assay (modified Boyden chamber), diabetic human fibroblasts; format: cell-based; details: HMGB1 200 ng/ml
Protocol: as §1, §2

[5] = system: keratinocytes (HaCat cell line); assay: Chemotaxis assay (modified Boyden chamber), keratinocytes; format: cell-based, human; details: HMGB1 200 ng/ml
Protocol: FIG. 9: Effect of HMGB1 on human fibroblasts and keratinocytes migration. Normal (A) and diabetic (B) fibroblasts were obtained from human biopsies. 0.4×10^6 cells/ml were placed in upper compartment of the modified Boyden chambers. HMGB1 (200 ng/ml) or PDGF (15 ng/ml) was added to the lower compartment and incubated for 6 hrs at 37° C. (C) Hacat cells were obtained from ATCC and migration experiments performed as described in (A-B). After staining with Giemsa solution, migrated cells were quantified by counting nuclei in five random microscope fields (40×). The data are expressed as migration index (fold increase in number of migrated cells relative to number of migrated cells in the absence of HMGB1 or PDGF) and are mean±SD of at least 4 independent experiments performed in triplicate. Statistical significance was evaluated by unpaired Student's t test.
Hacat human cells were obtained according to (14). […]
as §2

Row | Molecule | wound closure vs saline ([1]; glycyrrhizin 250 μg in the wound area) | wound area reduced by % of the initial size ([2]; day 3) [%] | wound area reduced by % of the initial size ([2]; day 5) [%] | wound area reduced by % of the initial size ([2]; day 6) [%] | wound area reduced by % of the initial size ([2]; day 7) [%] | wound closure / healing rate vs vehicle [2] | wound closure / healing rate vs vehicle ([2]; listed as glycyrrhizin) | percentage of wound closure ([1]; HMGB1 200 ng, day 3 after wounding) [%] | percentage of wound closure ([1]; HMGB1 200 ng, day 5) [%] | percentage of wound closure ([1]; HMGB1 200 ng, day 6) [%] | healing rate vs saline ([1]; HMGB1 200 ng, p<0.03) | complete wound closure evident by ([1]; HMGB1 200 ng, same in saline group) [days] | wound closure compared to lower dose (200 ng) ([1]; HMGB1 400 ng in 20 ul, 3 days after wounding) | wound closure compared to dose of 200 ng ([1]; HMGB1 800 ng) | wound closure ([2]; normal CD1 mice, HMGB1 200 ng in 20 μl injected in wound area immediately after wounding, vs saline) | percentage of wound closure ([2]; normal CD1 mice, HMGB1 200 ng, day 3 after wounding) [%] | percent of wound closure vs saline ([2]; normal CD1 mice, HMGB1 200 ng, day 5, p<0.03) | chemotactic effect (migration) [3] | chemotactic effect (migration) [4] | chemotactic effect (migration) [5]
1 | CC1(C)[C@@H](O[C@H]2O[C@H](C(=O)O)[C@@H](O)[C@H](O)[C@H]2O[C@@H]2O[C@H](C(=O)O)[C@@H](O)[C@H](O)[C@H]2O)CC[C@]2(C)[C@H]3C(=O)C=C4[C@@H]5C[C@@](C)(C(=O)O)CC[C@]5(C)CC[C@@]4(C)[C@]3(C)CC[C@@H]12 [GL, Glycyrrhizin] | No significant differences; also recorded: did not significantly modify wound closure | 15±3.5 | 38.7±6 | 61.2±5.9 | 73.3±4.5 | slowed down wound closure | significantly lower | – | – | – | – | – | – | – | – | – | – | – | – | –
2 | HMGB1 (protein, UniProt P09429 1-215, looked up, purified protein; cytokine released from monocyte-macrophage and necrotic cells, ligand of RAGE) High mobility group protein B1: MGKGDPKKPRGKMSSYAFFVQTCREEHKKKHPDASVNFSEFSKKCSERWKTMSAKEKGKFEDMAKADKARYEREMKTYIPPKGETKKKFKDPNAPKRPPSAFFLFCSEYRPKIKGEHPGLSIGDVAKKLGEMWNNTAADDKQPYEKKAAKLKEKYEKDIAAYRAKGKPDAAKKGVVKAEKSKKKKEEEEDEEDEEDEEEEEDEEDEDEEEDDDDE | – | – | – | – | – | – | – | 47.5±15.8 | 66.5±13 | 72.2±9 | significantly higher | ≤ 14 | larger wound closure | same effect | increased wound closure | 30.5±8.5 | significantly higher | exhibited a chemotactic effect | exhibited a chemotactic effect | exhibited a chemotactic effect
